Where “and” joins values, the source holds several entries; their conditions need not be identical. Equal values may be shown once.
Columns and labels:
Assay in all cases: cell-based or functional assay
[1] = target: T1, G protein of rabies virus CVS-11 strain (on virus) (rabies virus CVS-11 strain, UniProt O92284 20-524)
T1 sequence: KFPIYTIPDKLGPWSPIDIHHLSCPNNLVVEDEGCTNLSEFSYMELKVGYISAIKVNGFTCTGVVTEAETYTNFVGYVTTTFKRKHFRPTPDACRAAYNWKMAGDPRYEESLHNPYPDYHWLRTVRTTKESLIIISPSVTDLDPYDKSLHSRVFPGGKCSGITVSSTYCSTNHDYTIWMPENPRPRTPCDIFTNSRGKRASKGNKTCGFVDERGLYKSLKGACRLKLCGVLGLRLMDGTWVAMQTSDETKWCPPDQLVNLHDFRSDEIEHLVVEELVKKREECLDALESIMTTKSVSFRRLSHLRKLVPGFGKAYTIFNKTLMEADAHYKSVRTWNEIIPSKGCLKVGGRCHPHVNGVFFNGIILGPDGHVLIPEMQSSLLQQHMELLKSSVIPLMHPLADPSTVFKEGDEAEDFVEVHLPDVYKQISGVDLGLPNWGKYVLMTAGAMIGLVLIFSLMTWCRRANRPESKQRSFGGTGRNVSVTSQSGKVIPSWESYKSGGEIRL

[2] = target: G protein of rabies virus AZ Bat (Bat, Arizona), on virus (rabies virus)
[3] = target: G protein of rabies virus phi dog (Human/dog, Philippines), on virus (rabies virus)
[4] = target: G protein of rabies virus AK FX (Arctic Fox, Alaska, USA), on virus (rabies virus)
[5] = target: G protein of rabies virus Gray FX-AZ (AZ fox) (Gray Fox, Arizona, USA), on virus (rabies virus)
[6] = target: G protein of rabies virus 323R (Dog/Coyote, Texas, USA), on virus (rabies virus)
[7] = target: G protein of rabies virus Dog Tun (Dog, Tunisia), on virus (rabies virus)
[8] = target: G protein of rabies virus China dog 2005 (Dog, China), on virus (rabies virus)
[9] = target: G protein of rabies virus TN410 (Bat, Tennessee, USA), on virus (rabies virus)
[10] = target: G protein of rabies virus TX SK 4380 (Skunk, Texas, USA), on virus (rabies virus)
[11] = target: G protein of rabies virus Sri Lanka (Cow, Sri Lanka), on virus (rabies virus)
[12] = target: G protein of Wu ABLV (Australian bat lyssa, Genotype 7), on virus (Australian bat lyssa, Genotype 7)
[13] = target: G protein of ABV (SM 4476) (Australian bat lyssa, Genotype 7), on virus (Australian bat lyssa, Genotype 7)
[14] = target: G protein of rabies virus 3860 CA Bat (Bat, California, USA), on virus (rabies virus)
[15] = target: G protein of rabies virus Gabon dog (Dog, Gabon), on virus (rabies virus)
[16] = target: G protein of EBLV 2 A03-4659 (Genotype 6), on virus (EBLV 2, Genotype 6)
[17] = target: G protein of Duvenhage (Genotype 4), on virus (Duvenhage, Genotype 4)
[18] = target: G protein of EBLV 1 A09-3485 (Genotype 5), on virus (EBLV 1, Genotype 5)
[19] = target: G protein of EBLV 2 A09-3483 (Genotype 6), on virus (EBLV 2, Genotype 6)
[20] = target: G protein of rabies virus CASK (Skunk, California, USA), on virus (rabies virus)
[21] = target: G protein of rabies virus Dog son (Dog, Mexico), on virus (rabies virus)
[22] = target: G protein of rabies virus C1434 (Bat, Alabama, USA), on virus (rabies virus)
[23] = target: G protein of rabies virus TXFX (Gray fox, TX), on virus (rabies virus)
[24] = target: G protein of rabies virus LC NY (Bat, New York, USA), on virus (rabies virus)
[25] = target: G protein of rabies virus NC SK (Skunk, Wisconsin, USA), on virus (rabies virus)
[26] = target: G protein of rabies virus Phi 002 (231) (Human/dog, Philippines), on virus (rabies virus)
[27] = target: G protein of rabies virus WA Bat (Bat, Washington, USA), on virus (rabies virus)

B1: antibody 1 (antibody, V domains shown)
VH: VQLLQESGPGLAKPSETLSLICTVSGGSISRRRDYWGWIRQPPGRGLEWIGSFFHRGSTYYNPSLESRVSISVDPSKNQFSLHLSSVTVADTAVYYCARHPSTPFAEYLLLPDAFDSWGQGTLVTVSS
VL: DIVMTQSPATLSVSPGERATLSCRASQSVRSSLAWYQQRPGQAPRLLISGASTRATDIPARLSGSGSGTEFTLTVSSLQSEDFAVYYCQQYSDWPLTFGGGTKVEIKR
neutralizing activity (RFFIT) [1]: 0.41 IU/mL and 2060 IU/mg | neutralizing activity (RFFIT), Titer [1]: 70 | neutralizing activity (RFFIT) [2]: 1.1 IU/mL and 1090 IU/mg | neutralizing activity (RFFIT), Titer [2]: 125 | neutralizing activity (RFFIT) [3]: 0.28 IU/mL and 1390 IU/mg | neutralizing activity (RFFIT), Titer [3]: 75 | neutralizing activity (RFFIT) [4]: 0.44 IU/mL and 2220 IU/mg | neutralizing activity (RFFIT), Titer [4]: 60 | neutralizing activity (RFFIT) [5]: 0.53 IU/mL and 2670 IU/mg | neutralizing activity (RFFIT), Titer [5]: 16 | neutralizing activity (RFFIT) [6]: 0.33 IU/mL and 1670 IU/mg | neutralizing activity (RFFIT), Titer [6]: 60 | neutralizing activity (RFFIT) [7]: 2.3 IU/mL and 2300 IU/mg | neutralizing activity (RFFIT), Titer [7]: 230 | neutralizing activity (RFFIT) [8]: 0.43 IU/mL and 2140 IU/mg | neutralizing activity (RFFIT), Titer [8]: 12 | neutralizing activity (RFFIT) [9]: 0.51 IU/mL and 2530 IU/mg | neutralizing activity (RFFIT), Titer [9]: 19 | neutralizing activity (RFFIT) [10]: 0.4 IU/mL and 2000 IU/mg | neutralizing activity (RFFIT), Titer [10]: 50 | neutralizing activity (RFFIT) [11]: 0.43 IU/mL and 2160 IU/mg | neutralizing activity (RFFIT), Titer [11]: 54 | neutralizing activity (RFFIT) [12]: 0.38 IU/mL and 1920 IU/mg | neutralizing activity (RFFIT), Titer [12]: 250 | neutralizing activity (RFFIT) [13]: 0.4 IU/mL and 2000 IU/mg | neutralizing activity (RFFIT), Titer [13]: 54 | neutralizing activity (RFFIT) [14]: 0.4 IU/mL and 2000 IU/mg | neutralizing activity (RFFIT), Titer [14]: 56 | neutralizing activity (RFFIT) [15]: 0.41 IU/mL and 2030 IU/mg | neutralizing activity (RFFIT), Titer [15]: 65 | neutralizing activity (RFFIT) [16]: 0.6 IU/mL and 3000 IU/mg | neutralizing activity (RFFIT), Titer [16]: 54 | neutralizing activity (RFFIT) [17]: 0.44 IU/mL and 2200 IU/mg | neutralizing activity (RFFIT), Titer [17]: 13 | neutralizing activity (RFFIT) [18]: 1.85 IU/mL and 9260 IU/mg | neutralizing activity (RFFIT), Titer [18]: 50 | neutralizing activity (RFFIT) [19]: 2.22 IU/mL and 11100 IU/mg | neutralizing activity (RFFIT), Titer [19]: 50 | neutralizing activity (RFFIT) [20]: 0.4 IU/mL and 2000 IU/mg | neutralizing activity (RFFIT), Titer [20]: 50 | neutralizing activity (RFFIT) [21]: 2.7 IU/mL and 2720 IU/mg | neutralizing activity (RFFIT), Titer [21]: 340 | neutralizing activity (RFFIT) [22]: 0.51 IU/mL and 2530 IU/mg | neutralizing activity (RFFIT), Titer [22]: 19 | neutralizing activity (RFFIT) [23]: 0.41 IU/mL and 2070 IU/mg | neutralizing activity (RFFIT), Titer [23]: 56 | neutralizing activity (RFFIT) [24]: 0.52 IU/mL and 2620 IU/mg | neutralizing activity (RFFIT), Titer [24]: 11 | neutralizing activity (RFFIT) [25]: 2.24 IU/mL and 2240 IU/mg | neutralizing activity (RFFIT), Titer [25]: 280 | neutralizing activity (RFFIT) [26]: 2.5 IU/mL and 2500 IU/mg | neutralizing activity (RFFIT), Titer [26]: 250 | neutralizing activity (RFFIT) [27]: 2.2 IU/mL and 2160 IU/mg | neutralizing activity (RFFIT), Titer [27]: 270

B2: antibody 2 (antibody, V domains shown)
VH: EVQLVESGAEVKKPGASVKVSCKASGYTFTSYDISWVRQAPGQGLEWMGWISTYKGNTNFAQKFQDRVTLTTDTSTTTAYMELRSLTSDDTAVYYCARAKSHPFYDFWSAYYVPGAFDIWGQGTVVTVSS
VL: not shown
neutralizing activity (RFFIT) [1]: 1.47 IU/mL and 7350 IU/mg | neutralizing activity (RFFIT), Titer [1]: 250 | neutralizing activity (RFFIT) [2]: 11.3 IU/mL and 11300 IU/mg | neutralizing activity (RFFIT), Titer [2]: 1300 | neutralizing activity (RFFIT) [3]: 1.04 IU/mL and 5180 IU/mg | neutralizing activity (RFFIT), Titer [3]: 280 | neutralizing activity (RFFIT) [4]: 2 IU/mL and 10000 IU/mg | neutralizing activity (RFFIT), Titer [4]: 270 | neutralizing activity (RFFIT) [5]: 5.67 IU/mL and 28300 IU/mg | neutralizing activity (RFFIT), Titer [5]: 170 | neutralizing activity (RFFIT) [6]: 3.47 IU/mL and 17400 IU/mg | neutralizing activity (RFFIT), Titer [6]: 625 | neutralizing activity (RFFIT) [7]: 2.7 IU/mL and 2700 IU/mg | neutralizing activity (RFFIT), Titer [7]: 270 | neutralizing activity (RFFIT) [8]: 0.46 IU/mL and 2320 IU/mg | neutralizing activity (RFFIT), Titer [8]: 13 | neutralizing activity (RFFIT) [9]: 5.33 IU/mL and 26700 IU/mg | neutralizing activity (RFFIT), Titer [9]: 200 | neutralizing activity (RFFIT) [10]: 0.56 IU/mL and 2800 IU/mg | neutralizing activity (RFFIT), Titer [10]: 70 | neutralizing activity (RFFIT) [11]: 0.4 IU/mL and 2000 IU/mg | neutralizing activity (RFFIT), Titer [11]: 50 | neutralizing activity (RFFIT) [12]: 0.68 IU/mL and 3380 IU/mg | neutralizing activity (RFFIT), Titer [12]: 440 | neutralizing activity (RFFIT) [13]: 1.56 IU/mL and 7780 IU/mg | neutralizing activity (RFFIT), Titer [13]: 210 | neutralizing activity (RFFIT) [14]: 1.5 IU/mL and 7500 IU/mg | neutralizing activity (RFFIT), Titer [14]: 210 | neutralizing activity (RFFIT) [15]: 1.06 IU/mL and 5310 IU/mg | neutralizing activity (RFFIT), Titer [15]: 170 | neutralizing activity (RFFIT) [16]: 3.11 IU/mL and 15600 IU/mg | neutralizing activity (RFFIT), Titer [16]: 280 | neutralizing activity (RFFIT) [17]: 7.2 IU/mL and 36000 IU/mg | neutralizing activity (RFFIT), Titer [17]: 180 | neutralizing activity (RFFIT) [18]: 6.67 IU/mL and 33300 IU/mg | neutralizing activity (RFFIT), Titer [18]: 180 | neutralizing activity (RFFIT) [19]: 5.56 IU/mL and 27800 IU/mg | neutralizing activity (RFFIT), Titer [19]: 125 | neutralizing activity (RFFIT) [20]: 0.43 IU/mL and 2160 IU/mg | neutralizing activity (RFFIT), Titer [20]: 54 | neutralizing activity (RFFIT) [21]: 8.8 IU/mL and 8800 IU/mg | neutralizing activity (RFFIT), Titer [21]: 1100 | neutralizing activity (RFFIT) [22]: 0.96 IU/mL and 4800 IU/mg | neutralizing activity (RFFIT), Titer [22]: 36 | neutralizing activity (RFFIT) [23]: 1.85 IU/mL and 9260 IU/mg | neutralizing activity (RFFIT), Titer [23]: 250 | neutralizing activity (RFFIT) [24]: 2.14 IU/mL and 10700 IU/mg | neutralizing activity (RFFIT), Titer [24]: 45 | neutralizing activity (RFFIT) [25]: 2.16 IU/mL and 2160 IU/mg | neutralizing activity (RFFIT), Titer [25]: 270 | neutralizing activity (RFFIT) [26]: 2.5 IU/mL and 2500 IU/mg | neutralizing activity (RFFIT), Titer [26]: 250 | neutralizing activity (RFFIT) [27]: 2 IU/mL and 2000 IU/mg | neutralizing activity (RFFIT), Titer [27]: 250
